The target of assay [1] is gp75 presented by HLA-A31 (COS cells transfected with gp75 plus HLA-A31) (human) (UniProt P17643).
Assay [2] concerns the target tyrosinase presented by HLA-A24 (COS-7 cells transfected with tyrosinase + HLA-A24) (human).
For assay [3], the target named is gp100 with HLA-A24 (COS-7 cells transfected with gp100 + HLA-A24) (human) (UniProt P40967).
The target of assay [4] is gp75 with HLA-A24 (COS-7 cells transfected with gp75 + HLA-A24) (human) (UniProt P17643).
Assay [5] addresses MART-1 with HLA-A24 (COS-7 cells transfected with MART-1 + HLA-A24) (human) (UniProt Q16655).
The target of assay [6] is p15 presented by HLA-A24 (293-A24 or COS-7 cells transfected with the p15 cDNA and HLA-A24) (human).
Assay [7] has as its target gp100 presented by HLA-A2 (COS cells transfected with gp100 plus HLA-A2) (human) (UniProt P40967).
The target of assay [8] is MART-1 presented by HLA-A2 (COS cells transfected with MART-1 plus HLA-A2) (human) (UniProt Q16655).
Assay [9] has as its target Clone 1 (full length p15 RT-PCR product from 888 EBV B cells) presented by HLA-A24 on COS-7 cells (human).
Assay [10] has as its target β-gal with HLA-A24 (COS-7 cells transfected with β-gal + HLA-A24) (human).
The target of assay [11] is Clone 2 (truncated p15 RT-PCR product from 888 EBV B cells) presented by HLA-A24 on COS-7 cells (human).
For assay [12], the target named is p15 10-18 peptide … presented by HLA-A24 on 888 EBV B cells (human).
Assay [13] concerns the target p15 9-18 peptide … presented by HLA-A24 on 888 EBV B cells (human).
The target in assay [14] is p15 10-18 peptide … presented by HLA-A24 on 888 EBV B cells (human). The source holds these as a separate data set.
Assay [15] concerns the target p15 9-18 peptide … presented by HLA-A24 on 888 EBV B cells (human). The source holds these as a separate data set.
Assay [16] deals with tyrosinase peptide T9181 (…) on HLA-A24+ 888 EBVB cells (human).
In assay [17] the target is tyrosinase peptide T9206 (…) presented by HLA-A24 on 888 EBVB cells (human).
The target of assay [18] is tyrosinase peptide T10166 (…) on HLA-A24+ 888 EBVB cells (human).
Assay [19] deals with tyrosinase peptide T9180 (…) on HLA-A24+ 888 EBVB cells (human).
Assay [20] deals with tyrosinase peptide T10209 (…) on HLA-A24+ 888 EBVB cells (human).
Assay [21] deals with tyrosinase peptide T10213 (…) on HLA-A24+ 888 EBVB cells (human).
The target in assay [22] is tyrosinase peptide T10180 (…) on HLA-A24+ 888 EBVB cells (human).
In assay [23] the target is tyrosinase peptide T10206 (…) presented by HLA-A24 on 888 EBVB cells (human).
Assay [24] addresses tyrosinase peptide T9177 (…) on HLA-A24+ 888 EBVB cells (human).
Assay [25] concerns the target tyrosinase peptide T9199 (…) on HLA-A24+ 888 EBVB cells (human).
Assay [26] concerns the target tyrosinase peptide T10199 (…) on HLA-A24+ 888 EBVB cells (human).
Assay [27] addresses tyrosinase presented by HLA-A24 (COS-7 cells transfected with tyrosinase + HLA-A24) (human). The source holds these as a separate data set.
Assay [28] concerns the target β-gal with HLA-A24 (COS-7 cells transfected with β-gal + HLA-A24) (human). The source holds these as a separate data set.

Consider “TIL 586 (cells without a defined receptor)”, for which the GM-CSF in [1] is 770 pg/mL.
“TIL 888 (cells without a defined receptor)”: the GM-CSF amounted to 1500 pg/mL in assay [2]; 120 pg/mL in assay [3]; 130 pg/mL in assay [4]; 140 pg/mL in [5]; 60 pg/mL in [6].
Take “TIL 1200 (cells without a defined receptor)”: in assay [7], the GM-CSF was found to be 1500 pg/mL.
Regarding “TIL 1235 (cells without a defined receptor)”, the GM-CSF in [8] came to 1800 pg/mL.
With “TIL 1290 (cells without a defined receptor)”, the GM-CSF in assay [2] was 20 pg/mL; in [3], 10 pg/mL; in assay [4], 20 pg/mL; in [5] it was 20 pg/mL; in assay [6], 400 pg/mL. Moreover, the GM-CSF (pg/ml), Expt. 1 and Expt. 2 turned out to be 740 pg/mL in [9], 40 pg/mL in assay [10] and 300 pg/mL in [11]. The figures for the minimum peptide concentration sensitizing 888 EBV B cells for lysis (51Cr release) in [12] and in assay [13] were 1 ng/mL and 10 ng/mL, respectively. Also, the minimum peptide concentration stimulating significant GM-CSF release in assay [12] and in assay [13] was 10 ng/mL each time. For the same substance, the GM-CSF (pg/ml) at 10 ug/ml peptide stood at 910 pg/mL in assay [14] and 780 pg/mL in assay [15].
For the substance “TIL 1413 (cells without a defined receptor)”, the % Specific Lysis (E:T 40:1) and GM-CSF (pg/ml) (% specific lysis) in [16] was -1; in [18], -1; in assay [19] it was 2; in [20] it was 0; in [21], 1; in assay [22], 1. Besides, the % Specific Lysis (E:T 40:1) and GM-CSF (pg/ml) (% specific lysis) in assay [23] amounted to 20; in assay [24], 0; in assay [25], 0; in assay [26] it was 1. Besides, in assay [17], the % specific lysis (E:T 40:1) (% specific lysis) was 26. The GM-CSF Secretion in assay [27] was 292 pg/mL; in assay [28], 30 pg/mL.
